From US20060270591A1, “Androgen receptor coregulators” (priority 2002, published 2006)

Test system: AR
Assay: AR transactivation reporter gene assay (CAT/Luc) in prostate cancer cell lines (Example 2)
Format: cell-based, human
Description: 394. The human prostate cancer cell lines, LNCaP, PC-3, and DU145, were maintained in Dulbecco's minimum essential medium (DMEM) containing 5% fetal calf serum (FCS). Transfections using the calcium phosphate precipitation method and chloramphenicol acetyltransferase (CAT) and luciferase (Luc) assays were performed as previously described (Miyamoto et al. (1998) Proc. Natl. Acad. Sci. U.S.A. 95, 7379-7384; Yeh et al. (1999) Endocrine 11, 195-202; Miyamoto et al. (1998) Proc. Natl. Acad. Sci. U.S.A. 95, 11083-11088). Briefly, 1-4×10^5 cells were plated on 35-mm or 60-mm dishes 24 h before adding the precipitation mix containing a CAT or Luc reporter gene and a β-galactosidase expression plasmid (pCMV-β-gal) as an internal control for normalization of transfection efficiency. The medium was changed to phenol-red-free DMEM with 5% charcoal-stripped FCS 1 h before transfection. In each experiment, the total amount of transfected DNA per dish was maintained as a constant by addition of empty expression vector (pSG5 or pVP16, as appropriate). […] The cells were then harvested and whole cell extracts were used for CAT or Luc assay. The CAT activity was quantitated with a PhosphorImager (Molecular Dynamics). The Luc assay was determined using a Dual-Luciferase Reporter Assay System (Promega) and luminometer.

AR, sequence (P10275 whole entry): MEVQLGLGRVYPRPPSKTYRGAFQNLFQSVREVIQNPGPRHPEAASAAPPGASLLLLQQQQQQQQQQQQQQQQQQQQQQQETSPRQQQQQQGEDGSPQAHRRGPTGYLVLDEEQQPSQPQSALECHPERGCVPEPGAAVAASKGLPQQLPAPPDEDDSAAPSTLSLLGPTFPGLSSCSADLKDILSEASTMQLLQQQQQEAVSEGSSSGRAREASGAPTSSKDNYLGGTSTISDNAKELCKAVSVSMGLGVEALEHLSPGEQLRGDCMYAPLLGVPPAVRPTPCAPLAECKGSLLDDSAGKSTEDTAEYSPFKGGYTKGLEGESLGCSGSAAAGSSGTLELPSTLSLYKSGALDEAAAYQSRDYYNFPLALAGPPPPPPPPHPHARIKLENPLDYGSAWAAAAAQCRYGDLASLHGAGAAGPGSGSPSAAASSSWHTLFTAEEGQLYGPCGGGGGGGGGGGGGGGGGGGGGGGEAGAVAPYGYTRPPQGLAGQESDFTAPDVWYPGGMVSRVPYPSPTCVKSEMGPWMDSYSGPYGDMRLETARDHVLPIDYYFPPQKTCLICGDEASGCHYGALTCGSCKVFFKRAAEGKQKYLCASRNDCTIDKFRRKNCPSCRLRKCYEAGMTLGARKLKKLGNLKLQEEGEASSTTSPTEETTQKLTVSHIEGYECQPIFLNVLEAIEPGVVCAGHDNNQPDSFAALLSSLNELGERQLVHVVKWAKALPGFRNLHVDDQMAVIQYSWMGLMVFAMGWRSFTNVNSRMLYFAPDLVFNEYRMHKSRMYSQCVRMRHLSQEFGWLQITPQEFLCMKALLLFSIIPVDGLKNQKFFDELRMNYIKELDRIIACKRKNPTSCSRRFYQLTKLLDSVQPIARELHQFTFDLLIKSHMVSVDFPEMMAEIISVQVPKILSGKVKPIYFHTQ

B1: C′-ARA54: C-terminal region (amino acids 361-474) of ARA54 (protein)
chain: RNEYLQADEANKRLLDQRYGKRVIQKALEEMESKEWLEKNSKSCPCCGTPIEKLDGCNKMTCTGCMQYFCWICMGSLSRANPYKHFNDPGSPCFNRLFYAVDVDDDIWEDEVED
modifications: Homo sapien
notes: C-terminal region (amino acids 361-474) of ARA54
- effect on ARA55-, ARA70-, Rb-, or SRC-1-enhanced AR transactivation (DU145 cells, 1 nM DHT): only marginal or slight suppressive effects
- effect on DHT- or HF-mediated AR transcription activity (LNCaP, PC-3, DU145 cells, 1 nM DHT or 1 μM HF): suppresses DHT- or HF-mediated AR transcription activity
